Patent US20250304670A1 (AstraZeneca / MedImmune, published 2025)
Positions count from the first letter of the chain named. Names and notes keep the numbering of the source.

B1: Human Amyloid Beta 17-42 truncated peptide (peptide)
peptide: LVFFAEDVGSNKGAIIGLMVGGVVIA
notes: synthetic, unlabelled; also called Abeta 17-42
B2: Abet0144 scFv (scFv, V domains shown, not shown: small tags and cut ends)
VH: EVQLLESGGGLVQPGGSLRLSCAASGFTFSVYTMWWVRQAPGKGLEWVSVIGSSGGTTVYADSVKGRFTISRDNSKNTLYLQMNSLRAEDTAVYYCAREWMDHSRPYYYYGMDVWGQGTLVTVSS
VL: QSVLTQPPSVSVSPGQTASITCSGHNLEDKFASWYQQKSGQSPVLVIYRDDKRPSGIPERFSASNSGHTATLTISGTQATDEADYYCQAQDSTTRVFGGGTKLTVL
notes: non-germlined clone; VH is that of Abet0144-GL (no residues changed on germlining); also called most improved clone
B3: Abet0007 IgG2 (antibody, V domains shown)
VH: B2 VH with W100G, M101Q, D102Q, H103L, S104V
VL: B2 VL
notes: whole human IgG2 with human lambda light chain
B4: Abet0382 scFv (scFv, V domains shown, not shown: small tags and cut ends)
VH: EVQLLESGGGLVQPGGSLRLSCAASGFHFTNSIMWWVRQAPGKGLEWVSVIGSEAHRVTYADSVKGRFTISRDNSKNTLYLQMNSLRAEDTAVYYCAREWMDHSRPYYYYGMDVWGQGTLVTVSS
VL: B2 VL with Q1S, S2Y, V3E, T5I, S39P, S64T, Q88S, A89S, T93V
notes: purified scFv from E. coli
B5: Abet0007 scFv (scFv, V domains shown, not shown: small tags and cut ends)
VH: B2 VH with W100G, M101Q, D102Q, H103L, S104V
VL: B2 VL
notes: purified scFv from E. coli (pCantab10.5); also called original lead; parent clone
B6: Abet0380-GL IgG1-TM (antibody, V domains shown)
VH: EVQLLESGGGLVQPGGSLRLSCAASMGNFNYQTMWWVRQAPGKGLEWVSVIGKTNENIAYADSVKGRFTISRDNSKNTLYLQMNSLRAEDTAVYYCAREWMDHSRPYYYYGMDVWGQGTLVTVSS
VL: B2 VL with Q1S, S2Y, V3E, S39P, T80M, Q88S, A89S, S92T, T93V
notes: human IgG1 with the triple mutation L234F/L235E/P331S (TM), human lambda light chain; also called Abet0380-GL (germlined) IgG1-TM
B7: Human Amyloid Beta 1-16 truncated peptide (peptide)
peptide: DAEFRHDSGYEVHHQK
notes: synthetic, unlabelled; also called Abeta 1-16

How the values were obtained:
Abet0007 IgG2 = target: B3; experiment: HTRF peptide competition: dilution series of unlabelled peptide against 5 nM biotinylated human Amyloid beta 1-42 peptide for 0.3 nM Abet0007 IgG2 (section 1.6)
Method: (§1) As described above, the purified sFab fragments that bound specifically to the Amyloid beta 1-42 peptide were converted to recombinant IgG. To test the specificity of these IgGs for binding to other human Amyloid beta peptides, a competition assay was developed. […] The competition of each peptide was assessed by detecting the loss of binding of the lead IgG to the biotinylated 1-42 peptide by measuring the fluorescence resonance energy transfer (FRET) between the IgG and biotinylated 1-42 Amyloid beta using streptavidin cryptate (CisBio International, France; cat: 610SAKLB) and anti-human Fc IgG XL665 (CisBio International, France; cat: 61HFCXLB) detection reagents.
(§2) Streptavidin cryptate and anti-human Fc IgG XL665 were combined at 7 nM and 5 nM respectively in assay buffer containing 50 mM MOPS pH 7.4 (Sigma, UK; cat: M9381), 0.4 M KF (BDH Chemicals, USA; cat: 103444T), 0.1% fatty acid free bovine serum albumin (Sigma, UK; cat: A6003) and 0.1% Tween 20 (v/v) (Sigma, UK; cat: P2287). 5 μl of this solution were added to the assay plate (Costar® 384 well black shallow well, Corning Life Sciences; cat: 3676). Amyloid beta peptides were serially diluted in assay buffer using a Greiner 96 well U bottom plate (Greiner BioOne, Germany; cat: 650201). 5 μl of each peptide dilution were transferred in duplicate to the assay plate using a MiniTrak™ (PerkinElmer, USA) liquid handling robot. […]

[1] = target: T1, Biotinylated Human Amyloid Beta 1-42 peptide (human, N-terminal biotin); experiment: HTRF epitope competition, purified scFv; competitor Abet0042 IgG
T1 construct: synthetic (rPeptide A1117 or Bachem H-5642); also called N-terminal biotin Abeta 1-42; synthetic biotinylated human Amyloid beta 1-42 peptide
Method: The scFv with unique protein sequences were expressed in E. coli and purified by affinity chromatography followed by buffer exchange. […] The time resolved fluorescence was read after two hours incubation at room temperature.
Purified scFv were serially diluted in assay buffer containing 50 mM MOPS buffer pH 7.4 (Sigma, UK; cat: M9381), 0.4 M potassium fluoride (BDH Chemicals, USA; cat: 103444T), 0.1% fatty acid free bovine serum albumin (Sigma, UK; cat: A6003) and 0.1% Tween 20 (Sigma, UK; cat: P2287) using a Greiner 96 well U bottom plate (Greiner BioOne, Germany; cat: 650201). 5 μl of each dilution of scFv was transferred in duplicate to the assay plate (Costar® 384 well black shallow well, Corning Life Sciences; cat: 3676) using a MiniTrak™ (PerkinElmer, USA) liquid handling robot. […] The assay plates were sealed and incubated at room temperature for 1 hour. Streptavidin cryptate and anti-human Fc IgG XL665 were combined at 7 nM and 20 nM respectively in assay buffer and 5 μl of this solution were added to the assay plate.

[2] = target: T1, Biotinylated Human Amyloid Beta 1-42 …; experiment: SPR (BIAcore T-100), scFv over biotinylated peptide on SA chip, 1:1 Langmuir fit
Method: The chip surface was regenerated between cycles by a single 20 second injection of 10 mM Glycine pH 2.0 to remove scFv bound to the peptide.
A series of dilutions of each purified scFv (12.5-400 nM) were sequentially passed over the peptide surface for a sufficient amount of time to observe sensorgrams that could be fitted to an appropriate binding model with confidence. A zero-concentration buffer blank was subtracted from the main dataset to reduce the impact of any buffer artefacts or non-specific binding effects. An appropriate binding model was then fitted simultaneously to the data from each analyte titration using the BIAevaluation software.

[3] = target: T2, Human Amyloid Beta 1-43 peptide (human); experiment: HTRF peptide competition against biotinylated human Amyloid beta 1-42
T2 construct: synthetic, unlabelled; also called Abeta 1-43
Method: as §1, §2

[4] = target: B1; experiment: as above
Method: as §1, §2

[5] = target: T3, Human Amyloid Beta 1-42 peptide (human); experiment: SPR (BIAcore T-100), peptide over amine-coupled IgG, 1:1 Langmuir fit, mean
T3 construct: synthetic, unlabelled; also used here for the endogenous peptide of human plasma in the depletion assay; also called unlabelled human Amyloid beta 1-42; synthetic human Amyloid beta 1-42 peptide
Method: The chip surface was regenerated between cycles by a single 40 second injection of 10 mM Glycine pH 2.0 to remove ligand bound to the antibody.
Blank reference flow-cell data were subtracted from each IgG dataset and a zero-concentration buffer blank was double-reference subtracted from the main data set to reduce the impact of any buffer artefacts or non-specific binding effects. An appropriate binding model was then fitted simultaneously to the data from each analyte titration using the BIAevaluation software.
These parameters were derived from a 1:1 Langmuir fit to the data.

[6] = target: T4, Human Amyloid Beta 1-40 peptide (human); experiment: HTRF peptide competition: dilution series of unlabelled peptide against 5 nM biotinylated human Amyloid beta 1-42 peptide for 0.3 nM Abet0007 IgG2 (section 1.6)
T4 construct: synthetic, unlabelled; also called unlabelled human Amyloid beta 1-40
Method: as §1, §2

[7] = target: T1, Biotinylated Human Amyloid Beta 1-42 …; experiment: HTRF epitope competition; competitor Abet0144-GL IgG1-TM
[8] = target: T1, Biotinylated Human Amyloid Beta 1-42 …; experiment: SPR (ProteOn), scFv over immobilised biotinylated peptide
Method: These experiments were performed essentially as described by Karlsson et al. (Karlsson et al., 1991). For further details see section 1.7.
The chip surface was regenerated between cycles by a single 60 second injection of 10 mM Glycine pH 2.0 to remove scFv bound to the peptide.
Each scFv at 100-200 nM was sequentially passed over the peptide surface for a sufficient amount of time to observe sensorgrams that could be fitted to an appropriate binding model with confidence. An irrelevant scFv blank was subtracted from the main dataset to reduce the impact of any buffer artefacts or non-specific binding effects. An appropriate binding model was then fitted to the data.

[9] = target: T5, Amyloid beta plaques on human Alzheimer's Disease brain sections (human, UniProt P05067 672-713); experiment: in vitro immunohistochemistry, core plaques
T5 construct: mixture of Amyloid beta species in tissue; also called native Amyloid beta; human AD brain sections

Abet0144-GL IgG1-TM = target: T6, Abet0144-GL IgG1-TM; experiment: TR-FRET peptide competition: dilution series of unlabelled peptide against 1.5 nM biotinylated human Amyloid beta 1-42 peptide for 0.28 nM Abet0144-GL IgG1-TM (section 2.10)
T6 construct: human IgG1 with the triple mutation L234F/L235E/P331S (TM), human lambda light chain; also called Abet0144-GL (germlined) IgG1-TM
Method: This involved the use of Europium cryptate labelled anti-human Fc IgG (CisBio International, France; cat: 61 HFCKLB) and XL665 labelled streptavidin (CisBio International, France; cat: 611SAXLB) TR-FRET detection reagents.
Experiments were set up in Costar 384 well shallow bottom microtitre plates. […] 5 μl of assay buffer only was added to the negative binding assay control wells. […] 5 μl per well of each test peptide serial dilution was then transferred onto the 384 well assay plate. 5 μl of assay buffer only was added to the total and negative binding assay control wells. […] Finally, a combined solution was prepared containing Europium cryptate labelled anti-human Fc (2.4 nM) and XL665 labelled streptavidin (60 nM). 5 μl per well of this solution was added to all wells of the 384 well assay plate such that the final concentrations of Europium cryptate labelled anti-human Fc and XL665 labelled streptavidin were 0.6 nM and 15 nM, respectively.

Abet0380-GL IgG1-TM = target: B6; experiment: HTRF (TR-FRET) peptide competition: dilution series of peptide (10 uM to 0.17 nM) against 1.5 nM N-terminal biotin Abeta 1-42 for 0.5 nM Abet0380-GL IgG1-TM (Example 6)
Method: The assay was then incubated for a further 2 hrs at room temperature before reading on an Envision plate reader (PerkinElmer) using a standard homogeneous time resolved fluorescence (HTRF) read protocol.
The final assay volume was 20 ul and all reagents were prepared in an assay buffer comprising MOPS pH7.4 (50 mM), potassium fluoride (0.4M), tween 20 (0.1%) & fatty acid free BSA (0.1%). The assay was performed in low volume 384 well black assay plates (Costar 3676).

T2 sequence (peptide, as listed by the source): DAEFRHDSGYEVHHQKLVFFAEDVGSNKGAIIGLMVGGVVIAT
Sequence of Abet0380-GL IgG1-TM (VL, as listed by the source): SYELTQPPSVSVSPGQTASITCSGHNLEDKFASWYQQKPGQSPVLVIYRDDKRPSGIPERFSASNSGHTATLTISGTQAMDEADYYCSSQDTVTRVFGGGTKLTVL
T4 sequence (peptide, as listed by the source): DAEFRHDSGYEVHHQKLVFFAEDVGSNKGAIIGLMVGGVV

Binder: B1
- binding result (Abet0007 IgG2): binds

Binder: B2
- IC50 [1]: 5.5 nM
- Kd [2]: 33.2 nM
- koff [2]: 0.00666 s⁻¹
- kon [2]: 201000 M⁻¹ s⁻¹

Binder: B3
- binding result [3]: binds
- binding result [4]: binds
- Kd [5]: 473 nM
- koff [5]: 0.074 s⁻¹
- kon [5]: 160000 M⁻¹ s⁻¹
- binding result [6]: no binding (tested: about 2.5e-6 M (Log M about -5.6))

Binder: B4
- IC50 [7]: 0.66 nM
- Kd [8]: 0.354 nM
- koff [8]: 7.97e-05 s⁻¹
- kon [8]: 225000 M⁻¹ s⁻¹

Binder: B5
- IC50 [1]: 159 nM

Binder: B6
- plaque staining score (0-4) [9]: 3

Binder: B7
- binding result (Abet0144-GL IgG1-TM): no binding (tested: 1e-5 M (logM -5))
- binding result (Abet0380-GL IgG1-TM): no binding (tested: 1e-5 M (log M -5))
